From US20230002488A1 (SYSTIMMUNE, published 2023) come the findings set out here.

B1: SI-55P9 (antibody, human IgG1, kappa)
heavy: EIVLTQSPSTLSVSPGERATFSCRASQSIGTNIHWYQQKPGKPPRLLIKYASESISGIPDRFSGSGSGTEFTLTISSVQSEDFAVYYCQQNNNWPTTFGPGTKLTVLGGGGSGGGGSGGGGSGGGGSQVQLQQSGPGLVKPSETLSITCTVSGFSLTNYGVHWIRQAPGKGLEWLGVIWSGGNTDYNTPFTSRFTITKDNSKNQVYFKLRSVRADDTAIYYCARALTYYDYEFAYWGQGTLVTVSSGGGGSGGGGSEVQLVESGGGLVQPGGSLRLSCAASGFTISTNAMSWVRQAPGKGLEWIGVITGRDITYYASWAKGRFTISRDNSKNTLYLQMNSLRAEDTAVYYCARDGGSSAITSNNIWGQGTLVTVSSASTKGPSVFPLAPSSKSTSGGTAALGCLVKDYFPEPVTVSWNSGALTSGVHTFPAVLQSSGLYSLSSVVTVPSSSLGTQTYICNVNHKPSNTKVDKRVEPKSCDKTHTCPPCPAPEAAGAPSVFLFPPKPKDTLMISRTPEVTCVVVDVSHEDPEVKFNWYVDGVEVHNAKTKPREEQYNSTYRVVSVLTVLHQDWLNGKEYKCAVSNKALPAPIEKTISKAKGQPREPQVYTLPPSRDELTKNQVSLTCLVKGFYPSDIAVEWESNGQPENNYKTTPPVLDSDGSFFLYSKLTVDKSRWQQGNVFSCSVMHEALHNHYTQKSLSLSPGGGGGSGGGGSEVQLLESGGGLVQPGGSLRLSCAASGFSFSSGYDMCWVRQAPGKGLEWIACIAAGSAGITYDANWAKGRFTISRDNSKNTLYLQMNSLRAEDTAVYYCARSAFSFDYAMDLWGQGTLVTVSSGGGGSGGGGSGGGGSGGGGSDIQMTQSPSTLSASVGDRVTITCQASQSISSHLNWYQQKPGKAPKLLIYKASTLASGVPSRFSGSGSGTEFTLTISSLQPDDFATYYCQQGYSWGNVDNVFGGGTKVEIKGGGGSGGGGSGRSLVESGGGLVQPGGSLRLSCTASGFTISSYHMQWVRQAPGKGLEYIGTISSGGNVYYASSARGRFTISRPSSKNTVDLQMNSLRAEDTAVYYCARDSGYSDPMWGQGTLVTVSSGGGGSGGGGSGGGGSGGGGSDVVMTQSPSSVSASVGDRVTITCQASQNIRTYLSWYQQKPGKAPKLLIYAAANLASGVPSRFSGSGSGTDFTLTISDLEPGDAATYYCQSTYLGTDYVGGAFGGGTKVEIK
light: ENVLTQSPASLSASPGERVTITCSASSSVSYMHWYQQKPGQAPKLWIYDTSKLASGVPSRFSGSGSGNDHTLTISSMEPEDFATYYCFQGSVYPFTFGQGTKVTVLGGGGSGGGGSGGGGSGGGGSQVTLKESGPGLVQPGQTLRLTCAFSGFSLSTSGMGVGWIRQPPGKGLEWLAHIWWDDDKRYNPALKSRLTISKDTSKNQVYLQMNSLDAEDTAVYYCARMELWSYYFDYWGQGTLVTVSSGGGGSGGGGSDVVMTQSPSTLSASVGDRVTINCQASESISSWLAWYQQKPGKAPKLLIYEASKLASGVPSRFSGSGSGTEFTLTISSLQPDDFATYYCQGYFYFISRTYVNSFGGGTKVEIKRTVAAPSVFIFPPSDEQLKSGTASVVCLLNNFYPREAKVQWKVDNALQSGNSQESVTEQDSKDSTYSLSSTLTLSKADYEKHKVYACEVTHQGLSSPVTKSFNRGEC
notes: Penta-specific: D1 humanized anti-EGFR H7 scFv, D2 CD3, D3 PD-L1, D4 4-1BB, D6 CD19
B2: SI-55H12 (antibody, human IgG1, kappa)
heavy: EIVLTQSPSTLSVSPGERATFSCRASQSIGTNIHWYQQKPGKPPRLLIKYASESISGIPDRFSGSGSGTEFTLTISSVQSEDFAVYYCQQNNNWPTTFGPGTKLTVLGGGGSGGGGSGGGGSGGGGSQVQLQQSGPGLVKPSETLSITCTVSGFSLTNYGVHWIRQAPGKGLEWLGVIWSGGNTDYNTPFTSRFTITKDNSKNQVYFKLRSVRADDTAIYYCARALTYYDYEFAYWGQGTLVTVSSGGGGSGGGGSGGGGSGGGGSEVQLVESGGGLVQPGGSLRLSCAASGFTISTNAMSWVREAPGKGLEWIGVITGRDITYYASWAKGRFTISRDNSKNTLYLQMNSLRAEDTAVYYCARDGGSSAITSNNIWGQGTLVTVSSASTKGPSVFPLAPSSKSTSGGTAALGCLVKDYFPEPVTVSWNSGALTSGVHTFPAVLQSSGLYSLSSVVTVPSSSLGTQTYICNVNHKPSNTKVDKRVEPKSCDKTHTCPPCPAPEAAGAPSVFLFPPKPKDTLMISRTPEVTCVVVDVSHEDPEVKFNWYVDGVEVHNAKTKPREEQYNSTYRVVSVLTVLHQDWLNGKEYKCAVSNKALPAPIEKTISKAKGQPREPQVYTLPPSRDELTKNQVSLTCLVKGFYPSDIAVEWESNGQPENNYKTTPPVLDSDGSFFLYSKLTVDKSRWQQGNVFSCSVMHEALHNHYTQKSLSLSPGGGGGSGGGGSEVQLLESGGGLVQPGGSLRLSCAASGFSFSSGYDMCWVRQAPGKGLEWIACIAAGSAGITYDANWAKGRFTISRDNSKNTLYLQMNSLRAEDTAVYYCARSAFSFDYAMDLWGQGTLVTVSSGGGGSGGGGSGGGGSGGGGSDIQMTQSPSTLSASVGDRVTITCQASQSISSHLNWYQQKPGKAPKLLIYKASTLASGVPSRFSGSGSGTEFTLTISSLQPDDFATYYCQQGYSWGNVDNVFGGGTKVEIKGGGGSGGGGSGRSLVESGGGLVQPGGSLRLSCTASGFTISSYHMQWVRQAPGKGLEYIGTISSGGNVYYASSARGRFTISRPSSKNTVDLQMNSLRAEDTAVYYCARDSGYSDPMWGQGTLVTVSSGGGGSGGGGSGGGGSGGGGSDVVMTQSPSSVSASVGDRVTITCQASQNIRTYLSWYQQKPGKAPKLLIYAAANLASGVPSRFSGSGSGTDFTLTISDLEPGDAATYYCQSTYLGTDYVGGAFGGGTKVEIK
light: ENVLTQSPASLSASPGERVTITCSASSSVSYMHWYQQKPGQAPKLWIYDTSKLASGVPSRFSGSGSGNDHTLTISSMEPEDFATYYCFQGSVYPFTFGQGTKVTVLGGGGSGGGGSGGGGSGGGGSQVTLKESGPGLVQPGQTLSLTCAFSGFSLSTSGMGVGWIRQPPGKGLEWLAHIWWDDDKRYNPALKSRLTISKDTSKNQVYLQMNSLDAEDTAVYYCARMELWSYYFDYWGQGTLVTVSSGGGGSGGGGSDVVMTQSPSTLSASVGDRVTINCQASESISSWLAWYQQKPGKAPKLLIYEASKLASGVPSRFSGSGSGTEFTLTISSLQPDDFATYYCQGYFYFISRTYVNSFGGGTKVEIKRTVAAPSVFIFPPSDEQLKSGTASVVCLLNNFYPREAKVQWKVDNALQSGNSQESVTEQDSKDSTYSLSSTLTLSKADYEKHKVYACEVTHQGLSSPVTKSFNRGECGGGGSGGGGSGGGGSQSALTQPASVSGSPGQSITISCTGTSSDVGGYNFVSWYQQHPGKAPKLMIYDVSDRPSGVSDRFSGSKSGNTASLIISGLQADDEADYYCSSYGSSSTHVIFGGGTKVTVLGGGGSGGGGSGGGGSGGGGSQVQLQESGGGLVKPGGSLSLSCAASGFTFSSYWMSWVRQAPGKGLEWVANINRDGSASYYVDSVKGRFTISRDDAKNSLYLQMNSLRAEDTAVYYCARDRGVGYFDLWGRGTLVTVSS
B3: SI-55H11 (antibody, human IgG1, kappa)
heavy: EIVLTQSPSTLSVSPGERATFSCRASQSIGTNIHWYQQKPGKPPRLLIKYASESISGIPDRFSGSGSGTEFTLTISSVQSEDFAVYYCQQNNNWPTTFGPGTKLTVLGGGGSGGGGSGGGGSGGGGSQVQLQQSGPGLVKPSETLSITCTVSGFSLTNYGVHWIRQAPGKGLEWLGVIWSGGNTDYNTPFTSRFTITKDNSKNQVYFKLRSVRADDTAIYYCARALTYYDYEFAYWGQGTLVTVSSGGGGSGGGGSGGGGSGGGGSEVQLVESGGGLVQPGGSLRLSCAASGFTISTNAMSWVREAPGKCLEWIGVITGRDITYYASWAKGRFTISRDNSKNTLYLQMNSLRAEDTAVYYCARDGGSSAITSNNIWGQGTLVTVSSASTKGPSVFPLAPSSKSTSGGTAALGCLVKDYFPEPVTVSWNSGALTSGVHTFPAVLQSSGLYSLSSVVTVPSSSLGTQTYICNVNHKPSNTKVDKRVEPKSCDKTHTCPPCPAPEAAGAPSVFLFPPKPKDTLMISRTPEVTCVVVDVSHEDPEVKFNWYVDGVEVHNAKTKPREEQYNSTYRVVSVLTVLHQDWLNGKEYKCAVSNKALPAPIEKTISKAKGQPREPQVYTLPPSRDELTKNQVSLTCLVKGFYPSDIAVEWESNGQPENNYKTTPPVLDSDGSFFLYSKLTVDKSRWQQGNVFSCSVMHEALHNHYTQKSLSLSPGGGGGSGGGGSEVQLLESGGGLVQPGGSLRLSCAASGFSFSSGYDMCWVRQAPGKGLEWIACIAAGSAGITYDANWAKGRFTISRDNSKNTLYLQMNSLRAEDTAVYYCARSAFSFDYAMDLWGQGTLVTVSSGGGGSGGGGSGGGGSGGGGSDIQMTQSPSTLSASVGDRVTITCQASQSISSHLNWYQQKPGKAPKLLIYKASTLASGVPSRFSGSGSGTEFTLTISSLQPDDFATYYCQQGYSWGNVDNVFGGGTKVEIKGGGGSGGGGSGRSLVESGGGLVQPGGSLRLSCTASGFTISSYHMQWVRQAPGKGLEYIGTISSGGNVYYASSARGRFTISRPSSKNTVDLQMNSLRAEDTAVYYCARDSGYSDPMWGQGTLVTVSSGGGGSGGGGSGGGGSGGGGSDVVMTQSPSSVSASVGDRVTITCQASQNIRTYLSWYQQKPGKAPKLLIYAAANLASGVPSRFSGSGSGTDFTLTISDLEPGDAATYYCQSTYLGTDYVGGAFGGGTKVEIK
light: B2 light with G361C
notes: also called hexa-GNC antibody SI-55H11
B4: biotinylated human MICA (ligand, UniProt Q29983 24-308, looked up)
chain: EPHSLRYNLTVLSWDGSVQSGFLTEVHLDGQPFLRCDRQKCRAKPQGQWAEDVLGNKTWDRETRDLTGNGKDLRMTLAHIKDQKEGLHSLQEIRVCEIHEDNSTRSSQHFYYDGELFLSQNLETKEWTMPQSSRAQTLAMNVRNFLKEDAMKTKTHYHAMHADCLQELRRYLKSGVVLRRTVPPMVNVTRSEASEGNITVTCRASGFYPWNITLSWRQDGVSLSHDTQQWGDVLPDGNGTYQTWVATRICQGEEQRFTCYMEHSGNHSTHPVPSGKVLVLQSHWQ
modifications: biotinylated (site not stated)
notes: Loaded on SA tips as ligand for SI-49P6 and SI-49P7
B5: SI-38E17 (antibody, V domains shown)
VH: EVQLVESGGGLVQPGGSLRLSCAASGFTISTNAMSWVRQAPGKGLEWIGVITGRDITYYASWAKGRFTISRDNSKNTLYLQMNSLRAEDTAVYYCARDGGSSAITSNNIWGQGTLVTVSS
VL: AIQLTQSPSSLSASVGDRVTITCRASQGISSALAWYQQKPGKAPKLLIYDASSLESGVPSRFSGSGSGTDFTLTISSLQPEDFATYYCQQFNSYPFTFGPGTKVDIK
B6: SI-35E20 (antibody)
chain 1: not shown
chain 2: AYDMTQSPSSVSASVGDRVTIKCQASEDIYSFLAWYQQKPGKAPKLLIHSASSLASGVPSRFSGSGSGTDFTLTISSLQPEDFATYYCQQGYGKNNVDNAFGGGTKVEIKRTVAAPSVFIFPPSDEQLKSGTASVVCLLNNFYPREAKVQWKVDNALQSGNSQESVTEQDSKDSTYSLSSTLTLSKADYEKHKVYACEVTHQGLSSPVTKSFNRGEC
B7: SI-38P13 (antibody, human IgG1, kappa)
heavy: not shown
light: DPVLTQSPSSLSASVGDRVTISCQSSQSVAKNNNLAWFQQKPGQAPKLLIYSASTLAAGVPSRFSGSGSGTDFTLTISSVQPEDFATYYCSARDSGNIQSFGGGTKVEIKRTVAAPSVFIFPPSDEQLKSGTASVVCLLNNFYPREAKVQWKVDNALQSGNSQESVTEQDSKDSTYSLSSTLTLSKADYEKHKVYACEVTHQGLSSPVTKSFNRGECGGGGSGGGGSGGGGSQVTLKESGPGLVQPGQTLRLTCAFSGFSLSTSGMGVGWIRQPPGKGLEWLAHIWWDDDKRYNPALKSRLTISKDTSKNQVYLQMNSLDAEDTAVYYCARMELWSYYFDYWGQGTLVTVSSGGGGSGGGGSGGGGSGGGGSENVLTQSPASLSASPGERVTITCSASSSVSYMHWYQQKPGQAPKLWIYDTSKLASGVPSRFSGSGSGNDHTLTISSMEPEDFATYYCFQGSVYPFTFGQGTKVTVL
B8: SI-38P12 (antibody, human IgG1, kappa)
heavy: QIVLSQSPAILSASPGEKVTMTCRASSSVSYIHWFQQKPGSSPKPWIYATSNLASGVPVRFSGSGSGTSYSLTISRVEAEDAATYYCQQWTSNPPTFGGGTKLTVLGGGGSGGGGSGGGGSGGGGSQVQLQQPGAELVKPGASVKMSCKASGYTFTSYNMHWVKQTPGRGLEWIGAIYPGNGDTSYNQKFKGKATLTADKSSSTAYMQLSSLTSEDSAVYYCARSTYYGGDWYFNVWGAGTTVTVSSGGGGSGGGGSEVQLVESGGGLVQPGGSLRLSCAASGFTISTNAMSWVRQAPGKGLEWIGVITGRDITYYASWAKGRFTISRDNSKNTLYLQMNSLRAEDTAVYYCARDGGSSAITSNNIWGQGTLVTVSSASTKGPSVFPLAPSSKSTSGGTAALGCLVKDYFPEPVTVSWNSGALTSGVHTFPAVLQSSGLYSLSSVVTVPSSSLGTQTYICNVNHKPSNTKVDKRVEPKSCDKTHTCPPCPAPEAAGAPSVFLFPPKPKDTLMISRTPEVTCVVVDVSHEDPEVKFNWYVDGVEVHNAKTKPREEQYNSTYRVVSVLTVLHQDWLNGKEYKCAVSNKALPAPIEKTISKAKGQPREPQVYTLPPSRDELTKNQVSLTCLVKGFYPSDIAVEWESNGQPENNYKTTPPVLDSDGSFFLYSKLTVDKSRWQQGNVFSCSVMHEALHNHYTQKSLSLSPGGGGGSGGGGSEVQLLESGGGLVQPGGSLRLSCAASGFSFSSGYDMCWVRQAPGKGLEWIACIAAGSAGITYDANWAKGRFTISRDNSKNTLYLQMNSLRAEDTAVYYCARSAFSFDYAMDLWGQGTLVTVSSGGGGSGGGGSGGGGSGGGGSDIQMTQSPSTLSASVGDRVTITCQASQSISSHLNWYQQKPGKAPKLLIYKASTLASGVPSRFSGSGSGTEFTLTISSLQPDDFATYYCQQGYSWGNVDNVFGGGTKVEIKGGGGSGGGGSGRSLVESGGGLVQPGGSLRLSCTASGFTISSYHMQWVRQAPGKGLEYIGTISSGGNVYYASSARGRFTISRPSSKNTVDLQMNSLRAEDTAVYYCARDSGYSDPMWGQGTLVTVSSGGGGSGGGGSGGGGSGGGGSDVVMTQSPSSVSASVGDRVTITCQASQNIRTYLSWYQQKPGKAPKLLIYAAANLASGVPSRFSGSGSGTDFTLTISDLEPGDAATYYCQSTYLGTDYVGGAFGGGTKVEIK
light: B1 light
B9: SI-39E18 (antibody)
chain 1: not shown
chain 2: DILMTQSPSSMSVSLGDTVSITCHSSQDINSNIGWLQQRPGKSFKGLIYHGTNLDDEVPSRFSGSGSGADYSLTISSLESEDFADYYCVQYAQFPWTFGGGTKLEIKRTVAAPSVFIFPPSDEQLKSGTASVVCLLNNFYPREAKVQWKVDNALQSGNSQESVTEQDSKDSTYSLSSTLTLSKADYEKHKVYACEVTHQGLSSPVTKSFNRGEC
B10: SI-55P3 (antibody, human IgG1, kappa)
heavy: not shown
light: ENVLTQSPASLSASPGERVTITCSASSSVSYMHWYQQKPGQAPKLWIYDTSKLASGVPSRFSGSGSGNDHTLTISSMEPEDFATYYCFQGSVYPFTFGQGTKVTVLGGGGSGGGGSGGGGSGGGGSQVTLKESGPGLVQPGQTLRLTCAFSGFSLSTSGMGVGWIRQPPGKGLEWLAHIWWDDDKRYNPALKSRLTISKDTSKNQVYLQMNSLDAEDTAVYYCARMELWSYYFDYWGQGTLVTVSSGGGGSGGGGSDPVLTQSPSSLSASVGDRVTISCQSSQSVAKNNNLAWFQQKPGQAPKLLIYSASTLAAGVPSRFSGSGSGTDFTLTISSVQPEDFATYYCSARDSGNIQSFGGGTKVEIKRTVAAPSVFIFPPSDEQLKSGTASVVCLLNNFYPREAKVQWKVDNALQSGNSQESVTEQDSKDSTYSLSSTLTLSKADYEKHKVYACEVTHQGLSSPVTKSFNRGEC
notes: Penta-specific: D1 humanized anti-EGFR H1 scFv, D2 CD3, D3 PD-L1, D4 4-1BB, D6 CD19
B11: SI-79P2 (antibody, human IgG1, kappa)
heavy: not shown
light: B10 light
notes: Penta-specific: D1 humanized anti-EGFR H4 scFv, D2 CD3, D3 PD-L1, D4 4-1BB, D6 CD19

Where a chain is given by its changes, count along the chain named.

For the first assay, the target named is T1, human CD19 (human, UniProt P15391 20-291).
T1 sequence (looked up): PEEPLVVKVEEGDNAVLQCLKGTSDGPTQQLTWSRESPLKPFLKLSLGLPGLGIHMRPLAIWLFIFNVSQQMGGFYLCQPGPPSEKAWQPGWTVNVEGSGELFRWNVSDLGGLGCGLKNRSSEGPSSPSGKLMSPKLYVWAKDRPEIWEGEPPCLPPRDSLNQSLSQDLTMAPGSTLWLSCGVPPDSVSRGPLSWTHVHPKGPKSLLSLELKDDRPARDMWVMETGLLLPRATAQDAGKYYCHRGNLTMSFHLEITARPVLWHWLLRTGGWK
Kind of assay: BLI (Octet), GNC on AHC sensor; strong binding, dissociation too slow to quantify KD. In general terms: Biolayer interferometry detects binding as a change in optical thickness at a sensor tip.
In the case of B1, the binding result is reported as “binds”.

Regarding B2, the binding result is “binds”.

In a further assay the target is HER3 on BxPC3 cells (human, UniProt P21860 20-1342). Kind of assay: cell-based or functional assay.
Regarding B3, the “TDCC EC50 (pM), BxPC3 target cells” value is 0.0939 pM.

Another assay addresses T2, SI-49P7.
T2 construct: Antibody-like penta-GNC protein; NKG2D at D2, 4-1BBL trimer at D4; D1 CD3, D3 PD-L1, D6 CD19; also called αCD3×NKG2D×αPD-L1×41BBL trimer×αCD19
Kind of assay: BLI (Octet), biotinylated MICA on SA tips, GNC protein 0-100 nM as analyte.
One may read the Kd as the concentration at which binding is half-saturated. A lower Kd goes with higher affinity. B4 returned a Kd of 10.7 nM.

The target of the next assay is T3, human EGFR (human, UniProt P00533 25-645).
T3 construct: also called huEGFR; His-tagged human EGFR
In words: BLI (Octet), GNC on AHC sensor, antigen as analyte, 1:1 fit.
On to B1, for which the affinity, expressed as Kd, was 7.41 nM.

The target of a further assay is T4, human PD-L1 (human, UniProt Q9NZQ7 19-238).
T4 construct: Bought antigen; construct not described
Kind of assay: BLI (Octet), GNC on AHC sensor, 100 nM antigen as analyte, 1:1 fit.
Molecule B5 came in with an equilibrium dissociation constant (Kd) of 0.524 nM.

In turn, B6 gave a Kd of 0.379 nM. This Kd and that of the molecule before are within 1.5-fold of each other.

On to B7, for which binding was put at a Kd of 0.731 nM.

Turning to B1, binding was put at a Kd of 0.407 nM.

Take B8: the equilibrium dissociation constant (Kd) was found to be 0.195 nM.

In the case of B3, binding was put at a Kd of 0.737 nM.

Turning to B2, the Kd was determined as 0.25 nM.

The molecule B9 yielded a Kd of 0.421 nM.

The next assay concerns the target human ROR1 (human, UniProt Q01973 30-403, limits assumed). Described as above.
As to B6, binding was put at a Kd of 0.861 nM.

The target of the next assay is EGFRvIII (human, UniProt P00533 25-645, limits assumed). The assay is described as above.
With B9, the Kd amounted to 16.4 nM. That is a double-digit nanomolar value.

A further assay addresses T1, human CD19. The description is as above.
In turn, B5 returned a Kd of 1.48 nM.

Turning to B7, the Kd was determined as 0.181 nM.

For B8, binding was characterised by a dissociation constant (Kd) of 1.11 nM.

For B3, the Kd is 6.8 nM.

Another assay addresses T5, human 4-1BB (human, UniProt Q07011 24-186).
T5 construct: Bought antigen; construct not described
Described as above.
Turning to B5, the Kd is 8.19 nM.

For the molecule B6, the Kd came to 4.03 nM. Compared with the last molecule, the Kd is about 2-fold lower.

B7 gave a Kd of 8.54 nM. This Kd lies about 2.1-fold higher than the previous one.

Take B1: the affinity, expressed as Kd, was 7.55 nM.

As for B8, the Kd turned out to be 4.85 nM.

Turning to B3, the Kd came out at 4.91 nM. This Kd and that of the molecule before are within 1.5-fold of each other.

For the molecule B2, the Kd is 7.87 nM. This Kd lies about 1.6-fold higher than the previous one.

In turn, B9 had a Kd of 18.1 nM. This Kd lies about 2.3-fold higher than the previous one.

The next assay concerns the target T3, human EGFR. In words: BLI (Octet), GNC on AHC sensor, His-tagged human EGFR as analyte, global 1:1 fit.
Turning to B10, the affinity, expressed as Kd, was 18.1 nM.

The molecule B11 came in with a Kd of 4.3 nM.

As to B1, the Kd came out at 7.41 nM.
